In the supplement of paper PMC10126150:
± gives the standard deviation of the averaged measurements.

test system: ATP; experiment: switch fluorescence ratio, 500 uM ATP over buffer (Cy3 cluster intensity, sum of 5 cycles each) (fold (ratio)); higher = stronger signal-on switching upon ATP binding; sequences stand for … in TCGTCGGCAGCGTCAGATGTGTATAAGAGACAGTTTTTTTTTTTTTTTTTTTTTTTTT…TC; details: aptamer strand: ATP DNA aptamer (quencher-CACCTGGGGGAGTATTGCGGAGGAAGG + anchor), 100 nM annealed; ATP concentration: 500 uM
Procedure, shortened: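 Clusters carrying Cy3-labelled switching strands on a modified Illumina MiSeq flow-cell were annealed to 100 nM quencher-labelled ATP aptamer and imaged in selection buffer. They were imaged again after 15 min with 500 uM ATP at 22 °C, over five buffer/ATP cycles with NaOH stripping and re-annealing in between. For each cluster, the fluorescence ratio is the summed Cy3 intensity of the target cycles divided by that of the buffer cycles, averaged per switch-domain sequence. Clusters outside 100-1000 RFU were left out.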
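Further: ATP exposure 15 min at 22 °C before imaging.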

Point of comparison: TACTCAGTAT, switch fluorescence ratio 1.0208 ± 0.00084. Against it:
- GGATTGGCGT — within error, 1 ± 0.044
- TTCGTTTGTT — within error, 1.34 ± 0.56
- TAAATTGCG — lower, 0.9991 ± 0.0013
- CATTAGTTGG — lower, 1.006 ± 0.0052
- CGGCTCGATA — lower, 0.976 ± 0.02
- CAGTGTGTAT — lower, 0.989 ± 0.013
- GGACTTGTTT — lower, 0.984 ± 0.022
- GGAGTGTGTG — lower, 0.96 ± 0.044
- GGTTGGCATG — lower, 0.952 ± 0.03
- TAAATGGGCT — within error, 1.04 ± 0.025
- CGCTACTATT — higher, 1.12 ± 0.087
- AAATAATTTT — within error, 1.01 ± 0.027
- GGAAAGGGAG — lower, 0.97 ± 0.02
- ATCCGGGCGG — the same, 1.02 ± 0.071
- AAGTTGGTTA — lower, 0.991 ± 0.026
- AACTAAGTGG — lower, 0.967 ± 0.017
- TGGAGCCTAT — within error, 0.991 ± 0.031
- TGCAGTGCGT — lower, 1.0018 ± 9.8e-05
- GGGACCAGAT — within error, 1.01 ± 0.033
- GGCCGATATG — lower, 0.996 ± 0.015
- ACGGTAAACT — higher, 1.18 ± 0.065
- TTGAGATGGA — lower, 1.01 ± 0.0062
- AAAGGATGG — within error, 0.997 ± 0.036
- TTAAGGTATG — lower, 0.997 ± 0.019
- AAGCGGGAGC — higher, 1.026 ± 0.0049
- AGCGTGTTTA — within error, 1.04 ± 0.036
- AGGGGTGTCT — within error, 1.03 ± 0.017
- GCCGGGGACC — lower, 0.98 ± 0.031
- GCAGTAAATA — lower, 1.009 ± 0.0086
- GGCGTTTTGG — lower, 0.982 ± 0.026
- GGTACGGAGA — the same, 1.02 ± 0.011
- TGTGGCACTT — within error, 0.998 ± 0.022
- TAAGGAGTAG — lower, 0.991 ± 0.027
- TTCGAGTAGT — within error, 0.998 ± 0.03
- GGGGGGAGCT — the same, 1.02 ± 0.057
- AGGAGGCTAG — the same, 1.02 ± 0.045
- AGGTAAATTG — within error, 1.01 ± 0.015
- CACCGGAGGG — within error, 1.25 ± 0.4
- GCCTAGTTGT — lower, 0.977 ± 0.028
- TGTAGTGAA — within error, 1.1 ± 0.16
- CTTTTAATTG — lower, 0.977 ± 0.037
- GAAGCGTTGG — the same, 1.02 ± 0.0032
- TAAGTTGGGG — lower, 0.995 ± 0.02
- GGTGGCGTAC — the same, 1.018 ± 0.01
- ACAGGCTGAG — lower, 0.9973 ± 0.0097
- AGCTCGCCAC — within error, 1.05 ± 0.046
- GGGGGCCCCA — within error, 1.01 ± 0.022
- TTTGGTAATG — within error, 1.01 ± 0.021
- GAATAGGGGG — within error, 1.013 ± 0.0094
- CAAATGTAGC — the same, 1.017 ± 0.0081
- GCACTCAGGC — within error, 0.994 ± 0.03
- GCTAAAAAAT — lower, 0.98 ± 0.013
- TTGATTTTTT — within error, 0.996 ± 0.029
- TTAAAGTGGT — lower, 0.9789 ± 0.00047
- TTGATGGGAG — within error, 1.07 ± 0.12
- ATATATCGTT — lower, 0.981 ± 0.024
- TGGGTCAATG — lower, 0.9822 ± 0.0078
- CGTGACCGCC — higher, 1.08 ± 0.028
- TTGATCGGTT — lower, 1.002 ± 0.00027
- TAAGTTTGCC — within error, 1.01 ± 0.04
- GAAATTTTTG — lower, 0.985 ± 0.029
- TCATTGAGGA — lower, 0.992 ± 0.014
- TCGTGGCGAG — within error, 1.01 ± 0.028
- TTGTGTGCAG — lower, 0.959 ± 0.053
- AATTTGGCAT — lower, 1.012 ± 0.0063
- TCAGTGCGGG — within error, 0.98 ± 0.047
- GGGTCGCGGG — lower, 0.9946 ± 0.0024
- AATGTTTGAC — lower, 0.977 ± 0.038
- TATTGAGACT — lower, 0.989 ± 0.004
- GCTACCTGGT — the same, 1.02 ± 0.013
- GTATGTAGCG — lower, 0.987 ± 0.027
- GCTGGAGGTG — within error, 1.03 ± 0.039
- GGAATGACGG — lower, 1.012 ± 0.0024
- GTCGTTGGTG — within error, 1 ± 0.056
- GTTATTAGAG — lower, 0.987 ± 0.026
- CGGGCTGTGG — within error, 0.992 ± 0.03
- TAGGGTATTT — lower, 0.987 ± 0.023
- GGGGTACTTG — within error, 1.01 ± 0.02
- AAAACCGTCG — higher, 1.1 ± 0.023
- AACAGATTTT — lower, 0.998 ± 0.011
- AGTGAGGCGT — lower, 0.984 ± 0.018
- GGGCTTGGTA — lower, 1 ± 0.014
- CTGAACTCGT — within error, 1.03 ± 0.018
- GAGCTGGATA — lower, 0.967 ± 0.03
- GGGTGACTTA — lower, 0.978 ± 0.04
- TCTGAGATAT — lower, 0.9872 ± 0.0028
- TTTCAGCGGG — lower, 1 ± 0.018
- ATGAGTTTTC — the same, 1.024 ± 0.0043
- ACATAGAAAA — within error, 1.01 ± 0.044
- TGGCGCACAA — higher, 1.07 ± 0.013
- TAAGGAAAAT — lower, 0.998 ± 0.02
- TTTAGAATAT — lower, 0.9885 ± 0.0018
- ATGAGGGGTG — lower, 1.013 ± 0.0076
- GTTTCTGTGT — lower, 0.956 ± 0.012
- GGCGATCACG — lower, 0.9834 ± 0.006
- ATTCAACAAT — lower, 1 ± 0.016
- GTTTGTCCTG — lower, 1.007 ± 0.0071
- TTGGTTGCG — the same, 1.02 ± 0.026
- TAGGGTCATA — within error, 1.04 ± 0.077
- GCGAACGGTT — within error, 1.03 ± 0.021
- ATCAAAGTTT — within error, 0.994 ± 0.042
- ACGGTTAGTG — within error, 1.01 ± 0.018
- TCTTTGAAGA — within error, 1.14 ± 0.24
- TCCTGGGGGC — the same, 1.02 ± 0.058
- TGAGGGACGC — lower, 0.996 ± 0.021
- AGATGAGCCG — within error, 1.05 ± 0.11
- TTAGAACAAG — within error, 1.01 ± 0.019
- TAGTATAGTT — lower, 0.98 ± 0.016
- AAGTTGAATA — lower, 0.985 ± 0.021
- TACGGTCGCG — lower, 0.9949 ± 0.0036
- CAAGTACATG — higher, 1.2 ± 0.014
- GTGGGCCGCG — lower, 0.979 ± 0.029
- TTTACCGGAT — higher, 1.05 ± 0.024
- ATCAGGGGAG — lower, 1 ± 0.018
- GCAGTTTTCA — within error, 1.04 ± 0.095
- TTCGGAGTTT — within error, 1.01 ± 0.12
- ATTTAGTGTT — within error, 1 ± 0.024
- ATAGGGGGTC — within error, 0.988 ± 0.047
- GTAATGTATC — within error, 1.03 ± 0.046
- TCTTTGGACC — within error, 1.04 ± 0.056
- GGTGTAGTAT — lower, 0.9759 ± 0.008
- CGTTCTATTC — within error, 1.11 ± 0.17
- TAAGTTGTAT — within error, 1 ± 0.035
- TTTTTGGGCA — lower, 0.99 ± 0.013
- TATATGTGTG — lower, 0.9661 ± 0.0073
- TTTGAGCTAT — higher, 1.1 ± 0.029
- CAGGGATAGG — the same, 1.019 ± 0.0092
- CGTGGGTCTT — within error, 1.04 ± 0.03
- GGTTTAGACT — within error, 0.99 ± 0.036
- AGGCCTTGTG — lower, 0.985 ± 0.025
- AAGTTTTTGT — lower, 0.9997 ± 0.0081
- GCTTTTGAAG — lower, 0.993 ± 0.019
- GTTATGCGCC — the same, 1.02 ± 0.028
- GGGATTTCTG — within error, 1.03 ± 0.04
- TAGCTGAGGA — within error, 1.01 ± 0.032
- ATCGTGGGGT — lower, 0.971 ± 0.016
- CGCGATATGG — higher, 1.49 ± 0.17
- TTTAAATATT — the same, 1.02 ± 0.031
- TTCGGCAATG — within error, 1.39 ± 0.38
- TGGGCAGGAT — within error, 1.01 ± 0.041
- TGAGGAGAAT — within error, 0.996 ± 0.028
- TATAGTTTGC — lower, 0.969 ± 0.026
- ATTTAGTATC — within error, 1.09 ± 0.14
- TATGGCGGGG — the same, 1.02 ± 0.03
- TTTTTGACTT — within error, 1.005 ± 0.0092
- GTATAAATGG — lower, 0.978 ± 0.023
- TATAAAGCGG — within error, 1.03 ± 0.048
- CCTGGTGGGA — lower, 0.999 ± 0.014
- TTGAGTTTGC — within error, 1 ± 0.051
- GGGATTTGCA — lower, 0.9758 ± 0.0075
- TCTCGGGGTA — within error, 0.979 ± 0.046
- GTAGGGTGTG — lower, 0.973 ± 0.041
- TGAGTCTGCG — the same, 1.02 ± 0.12
- AAGTTGCAGC — within error, 1 ± 0.025
- CCATGGTTAC — within error, 2.67 ± 2.3
- TCTTGGATGT — lower, 1.0101 ± 5.3e-05
